From patent US20230240981A1 (THE REGENTS OF THE UNIVERSITY OF CALIFORNIA, priority 2020, published 2023)

Assays:
[1] = MALDI-TOF mass spectrum of native and microneedle-released insulin/glucagon; format: physicochemical; settings: throughout the polymerization process
[2] = physiological pH

insulin: Human recombinant insulin purchased from Thermo Fisher Scientific
integrity of protein released from microneedles [1]: stayed intact | solubility [2]: high solubility
